# Data as given in patent US20070275903A1 (Bristol-Myers Squibb, published 2007).
# Starred links: 1 amine or outer side, 2 acyl side, 3 side chain; linkers in the order of their positions; H or OH if unused. Suc = O=C(CCC(=O)[*:2])[*:1]; Dox = doxorubicin
# B1: Suc-Leu-Ala-Leu-Dox (peptide)
# peptide: Suc-Leu-Ala-Leu-Dox
# B2: Suc-Leu-Ala-Gly-Dox (peptide)
# peptide: Suc-Leu-Ala-Gly-Dox
# What was measured:
# Suc-Leu-Ala-Leu-Dox = tested on: T1, Suc-Leu-Ala-Leu-Dox
# T1 sequence: LAL
# Suc-Leu-Ala-Gly-Dox = tested on: T2, Suc-Leu-Ala-Gly-Dox
# T2 sequence: LAG
# Suc-βAla-Leu-Ala-Leu-Dox = tested on: T3, Suc-βAla-Leu-Ala-Leu-Dox
# T3 sequence: ALAL
# Suc-Met-Gly-Phe-Dnr = tested on: T4, Suc-Met-Gly-Phe-Dnr
# T4 sequence: MGF
# Suc-Tyr-Ala-Leu-Dnr = tested on: T5, Suc-Tyr-Ala-Leu-Dnr
# T5 sequence: YAL
# Suc-Phe-Gly-Ile-Dnr = tested on: T6, Suc-Phe-Gly-Ile-Dnr
# T6 sequence: FGI
# Suc-Leu-Tyr-Leu-Dox = tested on: T7, Suc-Leu-Tyr-Leu-Dox
# T7 sequence: LYL
# Suc-Met-Ala-Leu-Dox = tested on: T8, Suc-Met-Ala-Leu-Dox
# T8 sequence: MAL
# Pyg-Leu-Ala-Leu-Dnr = tested on: T9, Pyg-Leu-Ala-Leu-Dnr
# T9 sequence: LAL
# Suc-Phe-Gly-Phe-Dnr = tested on: T10, Suc-Phe-Gly-Phe-Dnr
# T10 sequence: FGF
# Suc-Leu-Thr-Leu-Dnr = tested on: T11, Suc-Leu-Thr-Leu-Dnr
# T11 sequence: LTL
# Suc-Nle-Gly-Phe-Dnr = tested on: T12, Suc-Nle-Gly-Phe-Dnr
# T12 sequence: XGF
# Suc-Nle-Ala-Leu-Dnr = tested on: T13, Suc-Nle-Ala-Leu-Dnr
# T13 sequence: XAL
# Suc-Met-Ala-Leu-Dnr = tested on: T14, Suc-Met-Ala-Leu-Dnr
# T14 sequence: MAL
# Suc-Met-Gly-Leu-Dnr = tested on: T15, Suc-Met-Gly-Leu-Dnr
# T15 sequence: MGL
# Suc-Tyr-Ala-Ile-Dnr = tested on: T16, Suc-Tyr-Ala-Ile-Dnr
# T16 sequence: YAI
# Suc-Phe-Gly-Leu-Dnr = tested on: T17, Suc-Phe-Gly-Leu-Dnr
# T17 sequence: FGL
# Suc-Leu-Tyr-Leu-Dnr = tested on: T18, Suc-Leu-Tyr-Leu-Dnr
# T18 sequence: LYL
# Suc-Leu-Ala-Leu-Dnr = tested on: T19, Suc-Leu-Ala-Leu-Dnr
# T19 sequence: LAL
# Suc-Met-Gly-Ile-Dnr = tested on: T20, Suc-Met-Gly-Ile-Dnr
# T20 sequence: MGI
# [1] = biological target: CD10 expressed on Ramos and Namalwa B-cell lines (UniProt P08473 2-750, limits assumed); assay: cell-based or functional assay
# Sequence of CD10 expressed on Ramos and Namalwa B-cell lines (P08473 2-750 limits assumed): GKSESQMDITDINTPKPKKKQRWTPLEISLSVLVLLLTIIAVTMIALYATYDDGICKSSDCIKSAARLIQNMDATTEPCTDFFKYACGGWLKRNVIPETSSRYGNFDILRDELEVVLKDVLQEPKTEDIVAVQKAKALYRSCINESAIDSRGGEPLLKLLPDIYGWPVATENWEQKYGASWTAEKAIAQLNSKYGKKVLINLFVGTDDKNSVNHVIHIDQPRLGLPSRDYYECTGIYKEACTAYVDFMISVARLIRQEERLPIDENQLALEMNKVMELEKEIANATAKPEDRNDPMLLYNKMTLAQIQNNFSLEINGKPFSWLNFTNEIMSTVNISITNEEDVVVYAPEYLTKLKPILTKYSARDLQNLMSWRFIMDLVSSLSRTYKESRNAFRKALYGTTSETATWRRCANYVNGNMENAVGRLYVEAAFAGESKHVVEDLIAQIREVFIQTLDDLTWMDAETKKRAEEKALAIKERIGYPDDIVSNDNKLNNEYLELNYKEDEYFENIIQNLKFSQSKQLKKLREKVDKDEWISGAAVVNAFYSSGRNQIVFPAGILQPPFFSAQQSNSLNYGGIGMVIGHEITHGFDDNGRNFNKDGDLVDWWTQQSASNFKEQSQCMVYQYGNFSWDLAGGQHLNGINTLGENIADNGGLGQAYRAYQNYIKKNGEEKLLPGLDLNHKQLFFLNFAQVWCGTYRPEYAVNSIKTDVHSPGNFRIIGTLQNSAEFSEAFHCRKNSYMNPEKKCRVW
molecule,measurement,setting,value
purified Porcine Kidney CD10 (Elastin Products Company),% hydrolysis/10 hr,Suc-Leu-Ala-Leu-Dox,8.3%
same,Fraction hydrolyzed relative to standard,Suc-Leu-Ala-Leu-Dox,0.75
same,% hydrolysis/10 hr,Suc-Leu-Ala-Gly-Dox,0%
same,Fraction hydrolyzed relative to standard,Suc-Leu-Ala-Gly-Dox,0
same,% hydrolysis/10 hr,Suc-βAla-Leu-Ala-Leu-Dox,10.9%
same,Fraction hydrolyzed relative to standard,Suc-βAla-Leu-Ala-Leu-Dox,1
trouase (carcinoma cell enzyme preparations; HeLa cell anion exchange fraction pool),Relative Cleavage %,Suc-Met-Gly-Phe-Dnr,29%
same,"cleavage by carcinoma enzyme preparations (HPLC, 2 hr at 37 C)",Suc-Met-Gly-Phe-Dnr,cleaved by the trouase under the given conditions
same,Relative Cleavage %,Suc-Tyr-Ala-Leu-Dnr,77%
same,Relative Cleavage %,Suc-Phe-Gly-Ile-Dnr,54%
same,"cleavage by carcinoma enzyme preparations (HPLC, 2 hr at 37 C)",Suc-Phe-Gly-Ile-Dnr,cleaved by the trouase under the given conditions
same,"cleavage by carcinoma enzyme preparations (HPLC, 2 hr at 37 C)",Suc-Leu-Tyr-Leu-Dox,cleaved by the trouase under the given conditions
same,Relative Cleavage %,Suc-Met-Ala-Leu-Dox,49%
same,"cleavage by carcinoma enzyme preparations (HPLC, 2 hr at 37 C)",Suc-Met-Ala-Leu-Dox,cleaved by the trouase under the given conditions
same,Relative Cleavage %,Pyg-Leu-Ala-Leu-Dnr,76%
same,"cleavage by carcinoma enzyme preparations (HPLC, 2 hr at 37 C)",Pyg-Leu-Ala-Leu-Dnr,cleaved by the trouase under the given conditions
same,Relative Cleavage %,Suc-Phe-Gly-Phe-Dnr,12%
same,"cleavage by carcinoma enzyme preparations (HPLC, 2 hr at 37 C)",Suc-Phe-Gly-Phe-Dnr,cleaved by the trouase under the given conditions
same,Relative Cleavage %,Suc-Leu-Ala-Leu-Dox,62%
same,"cleavage by carcinoma enzyme preparations (HPLC, 2 hr at 37 C)",Suc-Leu-Ala-Leu-Dox,cleaved by the trouase under the given conditions
same,"cleavage by carcinoma enzyme preparations (HPLC, 2 hr at 37 C)",Suc-Leu-Thr-Leu-Dnr,cleaved by the trouase under the given conditions
same,Relative Cleavage %,Suc-Nle-Gly-Phe-Dnr,17%
same,"cleavage by carcinoma enzyme preparations (HPLC, 2 hr at 37 C)",Suc-Nle-Ala-Leu-Dnr,cleaved by the trouase under the given conditions
same,Relative Cleavage %,Suc-Met-Ala-Leu-Dnr,69%
same,"cleavage by carcinoma enzyme preparations (HPLC, 2 hr at 37 C)",Suc-Met-Ala-Leu-Dnr,cleaved by the trouase under the given conditions
same,Relative Cleavage %,Suc-Leu-Ala-Gly-Dox,40%
same,"cleavage by carcinoma enzyme preparations (HPLC, 2 hr at 37 C)",Suc-Leu-Ala-Gly-Dox,cleaved by the trouase under the given conditions
same,Relative Cleavage %,Suc-Met-Gly-Leu-Dnr,55%
same,"cleavage by carcinoma enzyme preparations (HPLC, 2 hr at 37 C)",Suc-Met-Gly-Leu-Dnr,cleaved by the trouase under the given conditions
same,Relative Cleavage %,Suc-Tyr-Ala-Ile-Dnr,25%
same,"cleavage by carcinoma enzyme preparations (HPLC, 2 hr at 37 C)",Suc-Tyr-Ala-Ile-Dnr,cleaved by the trouase under the given conditions
same,Relative Cleavage %,Suc-Phe-Gly-Leu-Dnr,24%
same,"cleavage by carcinoma enzyme preparations (HPLC, 2 hr at 37 C)",Suc-Phe-Gly-Leu-Dnr,cleaved by the trouase under the given conditions
same,"cleavage by carcinoma enzyme preparations (HPLC, 2 hr at 37 C)",Suc-Leu-Tyr-Leu-Dnr,cleaved by the trouase under the given conditions
same,Relative Cleavage %,Suc-Leu-Ala-Leu-Dnr,76%
same,"cleavage by carcinoma enzyme preparations (HPLC, 2 hr at 37 C)",Suc-Leu-Ala-Leu-Dnr,cleaved by the trouase under the given conditions
same,Relative Cleavage %,Suc-Met-Gly-Ile-Dnr,46%
same,"cleavage by carcinoma enzyme preparations (HPLC, 2 hr at 37 C)",Suc-Met-Gly-Ile-Dnr,cleaved by the trouase under the given conditions
B1,"IC50 (µM), 3H-thymidine incorporation, Namalwa (CD10pos) cells",[1],2.27 µM
same,"IC50 (µM), 3H-thymidine incorporation, Ramos (CD10pos) cells",[1],2.63 µM
same,Ratio of IC50 Ball-1 (CD10neg):Namalwa (CD10pos),[1],35
same,Ratio of IC50 Ball-1 (CD10neg):Ramos (CD10pos),[1],30
B2,"IC50 (µM), 3H-thymidine incorporation, Namalwa (CD10pos) cells",[1],17.3 µM
same,"IC50 (µM), 3H-thymidine incorporation, Ramos (CD10pos) cells",[1],22.7 µM
same,Ratio of IC50 Ball-1 (CD10neg):Namalwa (CD10pos),[1],1
same,Ratio of IC50 Ball-1 (CD10neg):Ramos (CD10pos),[1],1
